From IntAct's records for PubMed 22364545

B1: Fibroblast growth factor 14 (Homo sapiens), Q92915-2 (parent)
chain: MVKPVPLFRRTDFKLLLCNHKDLFFLRVSKLLDCFSPKSMWFLWNIFSKGTHMLQCLCGKSLKKNKNPTDPQLKGIVTRLYCRQGYYLQMHPDGALDGTKDDSTNSTLFNLIPVGLRVVAIQGVKTGLYIAMNGEGYLYPSELFTPECKFKESVFENYYVIYSSMLYRQQESGRAWFLGLNKEGQAMKGNRVKKTKPAAHFLPKPLEVAMYREPSLHDVGETVPKPGVTPSKSTSASAIMNGGKPVNKSKTT

Variants of: B1
Settings: with scn8a_human SCN8A

Row | effect of a mutation on the interaction | Variant
1 | decreasing interaction strength | Y158N;V160N
